We go through three molecules from US6379665B1, “Phospholipase D polypeptide and DNA sequences” (Onyx Pharmaceuticals, Inc., priority 1996, dated 2002).

For one data set, the system named is HL-60 cells. The experiment in a line: RT-PCR quantification of hPLD1a and hPLD1b during dbcAMP-induced HL-60 cell differentiation. The class given is cell-based, human. Particulars: 0.5 mM dbcAMP; for increase in level (printed as activity) on day 1: day 1, RT-PCR; for increase in level (printed as activity) on day 2: day 2, RT-PCR; for increase in level (printed as activity) on day 3: day 3, RT-PCR. Here is the method: To analyze changes in the levels of hPLD1 a and hPLD1b during HL-60 cell differentiation induced by dcbAMP, HL-60 cells maintained in RPMI-1640 medium supplemented with 10% fetal bovine serum, 100 units/ml penicillin and 100 µg/ml streptomycin in a humidified atmosphere containing 5% CO2, at 37 C. were grown in RPMI-1640 medium without fetal bovine serum for 24 hours. Differentiation was initiated by the addition of 0.5 mM dbcAMP. Levels of PLD1a and PLD1b were quantified by RT-PCR. Total RNA was isolated from the HL-60 cells at the exponential growth stage by the acid guanidine thiocyanate method following the protocol of Chomczynski, Anal. Biochem. 162: 156-62(1992). Two g of RNA was reverse transcribed by using random hexamer mixed primers. The number of amplification cycles were determined to individual primer sets in order to maintain exponential rate of product amplification. Amplified DNA fragments were subjected to electrophoresis on 1.5% agarose gel and visualized by ethidium bromide staining. The intensity of bands was quantified by a densitometer (Atto Densitograph, Tokyo, Japan). Primer A (Forward): nucleotides 1475 through 1491; primer B (reverse) nucleotides 2133 through 2113 of SEQ ID NO: 1. Amplification conditions used were 94 C. for 30 seconds, 60 C. for 1 minute, and 72 C. for 1 minute; 25-27 cycles.

A short description of data set [1]: substrate specificity and transphosphatidylation assay of hPLD1a. Type of data set: biochemical. As for the experimental part:
Samples of the reaction products were applied to a 1 ml HPLC column of Source 15S resin (Pharmacia Biotech Inc.) and washed with 10 ml of H2O and eluted with a 30 ml linear gradient of 0-1 M CH3COONH4 in water at a flow rate of 1 ml/min. 1 ml fractions were collected and their radioactivity determined by liquid scintillation counting. Compounds were identified by reference to authentic standards. For analysis of phospholipid products, the vescicles were of standard composition except that approximately 10-20×10^3 dpm of [^32P]PC, [^32P]PE or [^32P]PI (specific radioactivity 10,000 dpm/nmol) was substituted for the [^3H]PC. Incubations were exactly as described except that transphosphatidylation assay contained 2% v/v EtOH. The assays were terminated by addition of 232 l of 1:1 CHCl2, MeOH. After mixing and centrifugation, the lower phases were removed, dried under vacuum, and analyzed by TLC on oxalate-impregnated Whatman 60A silica gel plates in a solvent system of CHCl2, MeOH:acetic acid (13:3:1, v/v). […]
To assess hPLD1a's substrate specificity, the standard PLD assay was carried out using [^32P]PE and [^32P]PI following the method as describe in Brown, Cell 75: 1137-44 (1993). […] To determine whether hPLD1a was capable of transphosphatidylase activity, EtOH was added to the reaction mixture and the products analyzed by thin layer chromatography. […]

The nature of data set [2]: standard headgroup release assay, fractions of hPLD1a baculovirus-infected Sf9 cells. Particulars: Sf9 cells infected 48 hours. Type of data set: biochemical. As for the experimental part: To determine the activity encoded by recombinant hPLD1a, control and hPLD1a-encoding baculovirus-infected Sf9 cells were assessed using a standard headgroup release assay that measures the amount of tritiated headgroup (e.g. [^3H]choline) liberated by hydrolysis of the labeled substrate [^3H]PC. The assay procedure measures release of the choline headgroup from the radiolabeled PC and is based on a protocol previously described in Brown, Cell 75:1137-44 (1993). Using standard separation techniques, cytosolic and membrane fractions were prepared from uninfected Sf9 cells or Sf9 cells infected for 48 hours with the hPLD1 expressing baculovirus vector. Sf9 cells infected with native baculovirus vector or PLC-expressing baculovirus vector yielded modest PLD activity levels similar to untransfected cells.

B1: hPLD1a: human phospholipase D1a, approximately 1074 amino acid protein, SEQ ID NO:2 (protein, listed as Homo sapiens)
chain: MSLKNEPRVNTSALQKIAADMSNIIENLDTRELHFEGEEVDYDVSPSDPKIQEVYIPFSAIYNTQGFKEPNIQTYLSGCPIKAQVLEVERFTSTTRVPSINLYTIELTHGEFKWQVKRKFKHFQEFHRELLKYKAFIRIPIPTRRHTFRRQNVREEPREMPSLPRSSENMIREEQFLGRRKQLEDYLTKILKMPMYRNYHATTEFLDISQLSFIHDLGPKGIEGMIMKRSGGHRIPGLNCCGQGRACYRWSKRWLIVKDSFLLYMKPDSGAIAFVLLVDKEFKIKVGKKETETKYGIRIDNLSRTLILKCNSYRHARWWGGAIEEFIQKHGTNFLKDHRFGSYAAIQENALAKWYVNAKGYFEDVANAMEEANEEIFITDWWLSPEIFLKRPVVEGNRWRLDCILKRKAQQGVRIFIMLYKEVELALGINSEYTKRTLMRLHPNIKVMRHPDHVSSTVYLWAHHEKLVIIDQSVAFVGGIDLAYGRWDDNEHRLTDVGSVKRVTSGPSLGSLPPAAMESMESLRLKDKNEPVQNLPIQKSIDDVDSKLKGIGKPRKFSKFSLYKQLHRHHLHDADSISSIDSTSSYFNHYRSHHNLIHGLKPHFKLFHPSSESEQGLTRPHADTGSIRSLQTGVGELHGETRFWHGKDYCNFVFKDWVQLDKPFADFIDRYSTPRMPWHDIASAVHGKAARDVARHFIQRWNFTKIMKSKYRSLSYPFLLPKSQTTAHELRYQVPGSVHANVQLLRSAADWSAGIKYHEESIHAAYVHVIENSRHYIYIENQFFISCADDKVVFNKIGDAIAQRILKAHRENQKYRVYVVIPLLPGFEGDISTGGGNALQAIMHFNYRTMCRGENSILGQLKAELGNQWINYISFCGLRTHAELEGNLVTELIYVHSKLLIADDNTVIIGSANINDRSMLGKRDSEMAVIVQDTETVPSVMDGKEYQAGRFARGLRLQCFRVVLGYLDDPSEDIQDPVSDKFFKEVWVSTAARNATIYDKVFRCLPNDEVHNLIQLRDFINKPVLAKEDPIRAEEELKKIRGFLVQFPFYFLSEESLLPSVGTKEAIVPMEVWT
In the case of B1, in the data set with HL-60 cells, the “increase in level (printed as activity) on day 1” value is “approximately 3 fold”, the “increase in level (printed as activity) on day 2” value is recorded as “approximately 4 fold” and the “increase in level (printed as activity) on day 3” value is reported as “less than 4 fold”. Also, the transphosphatidylase activity result in data set [1] (EtOH added, [^32P]PC, TLC) is “catalyzes the formation of [^32P]phosphatidylethanol”. Besides, the “hydrolysis of PE or PI” value in data set [1] ([^32P]PE and [^32P]PI as substrates) is “unable to hydrolyze PE or PI”. The “cytosolic PLD activity above control” value in data set [2] (cytosolic fraction) turned out to be 32 fold. Also, the “membrane-associated PLD activity above control” value in data set [2] (membrane fraction) was determined as 15 fold.

B2: PLD1: purified recombinant mammalian PLD1 (SEQ ID NOS:2 or 5), a/b form not specified (protein, UniProt Q13393 1-1074, looked up)
Phospholipase D1: B1 chain
As to B2, the “increase over the 3 day differentiation period” value in the data set with HL-60 cells (3 days, RT-PCR) is recorded as 3-4 fold.

B3: hPLD1b: human phospholipase D1b splice variant, approximately 1036 amino acid protein, SEQ ID NO:5 (protein, listed as Homo sapiens)
chain: MSLKNEPRVNTSALQKIAADMSNIIENLDTRELHFEGEEVDYDVSPSDPKIQEVYIPFSAIYNTQGFKEPNIQTYLSGCPIKAQVLEVERFTSTTRVPSINLYTIELTHGEFKWQVKRKFKHFQEFHRELLKYKAFIRIPIPTRRHTFRRQNVREEPREMPSLPRSSENMIREEQFLGRRKQLEDYLTKILKMPMYRNYHATTEFLDISQLSFIHDLGPKGIEGMIMKRSGGHRIPGLNCCGQGRACYRWSKRWLIVKDSFLLYMKPDSGAIAFVLLVDKEFKIKVGKKETETKYGIRIDNLSRTLILKCNSYRHARWWGGAIEEFIQKHGTNFLKDHRFGSYAAIQENALAKWYVNAKGYFEDVANAMEEANEEIFITDWWLSPEIFLKRPVVEGNRWRLDCILKRKAQQGVRIFIMLYKEVELALGINSEYTKRTLMRLHPNIKVMRHPDHVSSTVYLWAHHEKLVIIDQSVAFVGGIDLAYGRWDDNEHRLTDVGSVKRVTSGPSLGSLPPAAMESMESLRLKDKNEPVQNLPIQKSIDDVDSKLKGIGKPRKFSKFSLYKQLHRHHLHDADSISSIDSTSNTGSIRSLQTGVGELHGETRFWHGKDYCNFVFKDWVQLDKPFADFIDRYSTPRMPWHDIASAVHGKAARDVARHFIQRWNFTKIMKSKYRSLSYPFLLPKSQTTAHELRYQVPGSVHANVQLLRSAADWSAGIKYHEESIHAAYVHVIENSRHYIYIENQFFISCADDKVVFNKIGDAIAQRILKAHRENQKYRVYVVIPLLPGFEGDISTGGGNALQAIMHFNYRTMCRGENSILGQLKAELGNQWINYISFCGLRTHAELEGNLVTELIYVHSKLLIADDNTVIIGSANINDRSMLGKRDSEMAVIVQDTETVPSVMDGKEYQAGRFARGLRLQCFRVVLGYLDDPSEDIQDPVSDKFFKEVWVSTAARNATIYDKVFRCLPNDEVHNLIQLRDFINKPVLAKEDPIRAEEELKKIRGFLVQFPFYFLSEESLLPSVGTKEAIVPMEVWT
As for B3, in the data set on HL-60 cells, the “increase in level (printed as activity) on day 1” value is “less than 2 fold”, the “increase in level (printed as activity) on day 2” value is on record as “approximately 3 fold” and the “increase in level (printed as activity) on day 3” value is recorded as “approximately 3.5 fold”.
